The text below walks through data of patent US20240327538A1 (AMUNIX PHARMACEUTICALS, published 2024).

As usually defined, the Kd is the constant that tells how readily two partners part at equilibrium. Usually koff stands for a measure of how fast the partners let go of each other. As a reminder, the kon is the second-order rate constant of association. By EC50 is commonly meant the concentration that produces a half-maximal response.

In experiment [1] the target is T1, human PSMA-Fc (human, UniProt Q04609 44-750, limits assumed).
T1 construct: also called Human PSMA-Fc fusions; not shown: Fc part
The experiment can be described thus: Octet. (In general: BLI is a label-free optical method that tracks binding on a fibre tip over time.)

The target of experiment [2] is T1, human PSMA-Fc. The experiment is described as follows: Octet, human PSMA-Fc. How it is done:
Binding affinity of select PSMA PTE variants was tested by Octet.

In experiment [3] the target is T1, human PSMA-Fc. The experiment is described as follows: Octet, human PSMA-Fc, 300-3.6 nM PSMA-uTCE.
In experiment [4] the target is T2, cynomolgus monkey CD3 epsilon (cynomolgus monkey, UniProt Q95LI5 22-117, limits assumed).
T2 construct: also called cyCD3e
T2 sequence (looked up): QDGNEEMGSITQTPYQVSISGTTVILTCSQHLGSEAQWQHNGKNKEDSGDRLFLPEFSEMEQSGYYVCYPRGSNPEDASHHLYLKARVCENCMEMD
The experiment is described as follows: Octet.

Experiment [5] concerns the target T3, human CD3 epsilon (human, UniProt P07766 23-126, limits assumed).
T3 construct: also called huCD3e
The experiment can be described thus: Octet.

For experiment [6], the target named is T4, human PSMA (human, UniProt Q04609 44-750, limits assumed).
T4 construct: also called huPSMA
The experiment is described as follows: Octet.

In experiment [7] the target is T5, cynomolgus monkey PSMA (cynomolgus monkey, UniProt A0A2K5VNZ0 44-750).
T5 construct: also called cyPSMA; Cyno PSMA
The experiment can be described thus: Octet.

The target of experiment [8] is T4, human PSMA. The experiment is described as follows: BLI or SPR. From the text:
(§1) The values are reported below in Table 19 for PSMA and Table 20 for CD3.

The target of experiment [9] is T5, cynomolgus monkey PSMA. The experiment is described as follows: BLI or SPR.
Text: as §1

Experiment [10] concerns the target T2, cynomolgus monkey CD3 epsilon. The experiment can be described thus: Biacore.
For experiment [11], the target named is T3, human CD3 epsilon. The experiment is described as follows: Biacore. (In general: In SPR one partner is held on a chip, and binding of the other changes the refractive index at the surface.)
The target of experiment [12] is T6, human PSMA on PSMA-transfected CHO cells (human, UniProt Q04609 1-750).
T6 construct: whole, on cells; also called Hu PSMA CHO
The experiment can be described thus: binding to PSMA-transfected CHO cells, labeled secondary antibody to the anti-CD3 scFv. How it is done: (§2) Surface binding was detected with a labeled secondary antibody specific for the anti-CD3 scFv.
(§3) The binding affinities to both human and cyno PSMA and human and cyno CD3 epsilon were determined.

Experiment [13] has as its target T7, PSMA on human prostate cancer cell lines (LNCaP, 22Rv1) (human, UniProt Q04609 1-750). The experiment is described as follows: cell-based or functional assay.
Experiment [14] addresses T7, PSMA on human prostate cancer cell …. The experiment can be described thus: cell-based or functional assay. The source holds these as a separate data set.
The target of experiment [15] is T8, Cyno CD3 (cynomolgus monkey, UniProt Q95LI5 22-117).
T8 construct: also called cynomolgus monkey CD3; not shown: A CD3 delta partner cannot be excluded
T8 sequence: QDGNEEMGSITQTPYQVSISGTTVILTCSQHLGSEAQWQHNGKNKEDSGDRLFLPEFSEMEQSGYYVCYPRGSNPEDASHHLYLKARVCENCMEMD
The experiment can be described thus: BLI or SPR.

The target of experiment [16] is T9, Human CD3 (human, UniProt P07766 23-126).
T9 construct: not shown: A CD3 delta partner cannot be excluded
The experiment is described as follows: BLI or SPR.

Experiment [17] concerns the target T4, human PSMA. The experiment is described as follows: Biacore.
Experiment [18] deals with T5, cynomolgus monkey PSMA. The experiment can be described thus: Biacore.
Experiment [19] addresses T4, human PSMA. The experiment can be described thus: Pool 2 binding screen.
Experiment [20] addresses T10, cyno PSMA on PSMA-transfected CHO cells (cynomolgus monkey, UniProt A0A2K5VNZ0 1-750).
T10 construct: whole, on cells; also called Cyno PSMA CHO
The experiment can be described thus: binding to PSMA-transfected CHO cells, labeled secondary antibody to the anti-CD3 scFv. How it is done:
as §2, §3

The target of experiment [21] is T1, human PSMA-Fc. The experiment can be described thus: linker length / domain swap comparison.

T7 sequence (Q04609 whole entry): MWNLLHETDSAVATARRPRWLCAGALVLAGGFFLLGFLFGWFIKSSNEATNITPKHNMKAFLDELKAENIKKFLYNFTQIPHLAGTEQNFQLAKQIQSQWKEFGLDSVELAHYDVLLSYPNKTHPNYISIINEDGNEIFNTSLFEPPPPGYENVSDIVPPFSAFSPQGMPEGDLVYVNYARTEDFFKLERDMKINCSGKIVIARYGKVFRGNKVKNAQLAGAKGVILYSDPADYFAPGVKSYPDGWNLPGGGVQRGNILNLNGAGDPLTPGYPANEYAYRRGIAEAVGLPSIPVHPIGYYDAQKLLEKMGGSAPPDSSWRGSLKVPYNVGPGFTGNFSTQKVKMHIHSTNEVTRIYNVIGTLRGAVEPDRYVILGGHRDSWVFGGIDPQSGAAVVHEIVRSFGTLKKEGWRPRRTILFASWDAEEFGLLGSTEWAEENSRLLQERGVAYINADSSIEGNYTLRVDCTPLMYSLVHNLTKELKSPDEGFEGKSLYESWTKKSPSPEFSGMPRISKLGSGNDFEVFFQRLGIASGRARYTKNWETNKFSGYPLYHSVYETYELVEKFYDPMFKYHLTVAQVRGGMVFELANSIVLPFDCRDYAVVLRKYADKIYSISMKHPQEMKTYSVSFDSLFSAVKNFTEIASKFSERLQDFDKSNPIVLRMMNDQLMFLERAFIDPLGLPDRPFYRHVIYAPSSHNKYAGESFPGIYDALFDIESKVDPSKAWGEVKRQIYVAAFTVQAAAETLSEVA
T9 sequence (P07766 23-126 limits assumed): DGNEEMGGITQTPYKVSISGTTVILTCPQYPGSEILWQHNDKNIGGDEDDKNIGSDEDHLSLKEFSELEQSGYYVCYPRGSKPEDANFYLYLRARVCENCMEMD
T3 sequence (P07766 23-126 limits assumed): as above
T4 sequence (Q04609 44-750 limits assumed): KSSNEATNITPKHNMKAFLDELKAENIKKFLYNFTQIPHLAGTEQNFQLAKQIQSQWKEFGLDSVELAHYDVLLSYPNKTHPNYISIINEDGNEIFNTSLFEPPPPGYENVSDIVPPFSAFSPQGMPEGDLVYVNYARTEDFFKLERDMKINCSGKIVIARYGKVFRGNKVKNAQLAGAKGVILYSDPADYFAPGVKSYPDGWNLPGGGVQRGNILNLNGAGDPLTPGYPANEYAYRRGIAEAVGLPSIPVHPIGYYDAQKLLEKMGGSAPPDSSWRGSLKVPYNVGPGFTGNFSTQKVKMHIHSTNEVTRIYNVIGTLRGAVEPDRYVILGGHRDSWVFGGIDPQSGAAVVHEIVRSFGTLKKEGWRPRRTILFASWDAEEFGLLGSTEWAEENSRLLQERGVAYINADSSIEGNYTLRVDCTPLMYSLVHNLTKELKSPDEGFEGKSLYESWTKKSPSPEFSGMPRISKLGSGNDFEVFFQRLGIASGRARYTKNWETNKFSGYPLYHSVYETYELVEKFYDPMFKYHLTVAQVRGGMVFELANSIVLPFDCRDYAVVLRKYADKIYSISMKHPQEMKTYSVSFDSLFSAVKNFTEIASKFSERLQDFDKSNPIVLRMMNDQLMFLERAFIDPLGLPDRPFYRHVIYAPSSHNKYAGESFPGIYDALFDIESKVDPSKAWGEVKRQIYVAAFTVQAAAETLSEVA
T1 sequence (Q04609 44-750 limits assumed): as above
T6 sequence (Q04609 whole entry): as the sequence (Q04609 whole entry) above

B1: uTCE of AC3265 (bispecific antibody, V domains shown)
VH: QVQLVESGGGVVQPGRSLRLSCAASGRTFGIYVMGWYRQAPGKEREFVAAISWSGSNRLVSDSVKGRFTISRDNSKNTLYLQMNSLRAEDTAVYYCAASNRLYGRTWYDFNESDYWGQGTQVTVSS
notes: VHH in uTCE with CD3.23 scFv (VL-VH), 9-residue linker; also called PSMA.55; V37Y
As for B1, the dissociation constant (Kd) in [1] amounted to 2.7 nM. In [2], this molecule showed a koff of 0.00028 s⁻¹ and an association rate constant (kon) of 104000 M⁻¹ s⁻¹. The Kd in experiment [3] was 2.7 nM.

B2: AMX-500(uTCE) (bispecific antibody)
chain: GTSESATPESQVQLVESGGGVVQPGRSLRLSCAASGRTFGIYVWGWFRQAPGKEREFVGAMSWSGSNRKVSDSVKGRFTISRDNSKNTLYLQMNSLRAEDTAVYYCAASNKEYGRTWYDFNESDYWGQGTQVTVSSGGGGSGGGSELVVTQEPSLTVSPGGTVTLTCRSSNGAVTSSNYANWVQQKPGQAPRGLIGGTNKRAPGTPARFSGSLLGGKAALTLSGVQPEDEAVYYCALWYPNLWVFGGGTKLTVLSESATPESGPGTSPGATPESGPGTSESATPEVQLVESGGGIVQPGGSLRLSCAASGFTFSTYAMNWVRQAPGKGLEWVGRIRTKRNNYATYYADSVKGRFTISRDDSKNTVYLQMNSLKTEDTAVYYCVRHENFGNSYVSWFAHWGQGTLVTVSSGTATPESGPG
notes: also called uTCE from AC3896; fully unmasked AMX-500; not shown: remnant of cleaved N-terminal release segment RSR-3213; remnant of cleaved C-terminal release segment RSR-3213
As to B2, the Kd amounted to 38.8 nM in experiment [4]; 33.2 nM in experiment [5]; 12.1 nM in experiment [6]; 201 nM in experiment [7]; 44 nM in experiment [8]; 410 nM in [9]. Moreover, the Kd was 13.7 nM in experiment [10]; 12.8 nM in experiment [11]; 26 nM in experiment [15]; 28 nM in experiment [16]; 11.7 nM in experiment [17]; 230 nM in experiment [18]. In addition, the koff in experiment [8] is 0.012 s⁻¹; in [9] it was 0.043 s⁻¹; in experiment [15] it was 0.1 s⁻¹; in experiment [16], 0.1 s⁻¹. Besides, the on-rate constant (kon) was 270000 M⁻¹ s⁻¹ in experiment [8], 100000 M⁻¹ s⁻¹ in experiment [9], 5e+06 M⁻¹ s⁻¹ in [15] and 4e+06 M⁻¹ s⁻¹ in [16]. This molecule came in with an EC50 in [12] of 17.4 nM. For the same molecule, the “in vitro cytotoxicity IC50, LNCaP PSMA-high cells with PBMC, donor 1” value in experiment [13] came to 0.024 nM. Besides, the “in vitro cytotoxicity IC50, LNCaP PSMA-high cells with PBMC, donor 2” value in [13] came to 0.015 nM. The “in vitro cytotoxicity IC50, LNCaP PSMA-high cells with PBMC, donor 3” value in [13] was 0.016 nM. The “in vitro cytotoxicity IC50, LNCaP PSMA-high cells with PBMC, donor 5” value in experiment [13] came to 0.032 nM. Further, the “in vitro cytotoxicity IC50, 22Rv1 cells with PBMC, donor 1” value in [14] came out at 0.691 nM. The “in vitro cytotoxicity IC50, 22Rv1 cells with PBMC, donor 2” value in experiment [14] worked out at 1.34 nM. Further, in experiment [14], the “in vitro cytotoxicity IC50, 22Rv1 cells with PBMC, donor 3” value was 1.3 nM.

B3: uTCE of AC3329 (bispecific antibody)
chain: LTGPRAPPEPEFARATSGSETPGTQVQLVESGGGVVQPGRSLRLSCAASGRTFGIYVMGWVRQAPGKEREFVAAISWSGSNRKVSDSVKGRFTISRDNSKNTLYLQMNSLRAEDTAVYYCAASNRLYGRTWYDFNESDYWGQGTQVTVSSGGGGSGGGSELVVTQEPSLTVSPGGTVTLTCRSSNGAVTSSNYANWVQQKPGQAPRGLIGGTNKRAPGTPARFSGSLLGGKAALTLSGVQPEDEAVYYCALWYPNLWVFGGGTKLTVLGATPPETGAETESPGETTGGSAESEPPGEGEVQLLESGGGIVQPGGSLKLSCAASGFTFNTYAMNWVRQAPGKGLEWVARIRSKYNNYATYYADSVKDRFTISRDDSKNTVYLQMNNLKTEDTAVYYCVRHENFGNSYVSWFAHWGQGTLVTVSSGTAEAASASGEAGRSANHTPAG
notes: unmasked TCE of this paTCE; also called PSMA.119; L59K
In experiment [1], B3 showed a dissociation constant Kd of 3.2 nM. This molecule gave a Kd in experiment [19] of 4.1 nM. In experiment [2], this molecule displayed a Kd of 3.2 nM, an off-rate constant (koff) of 0.000248 s⁻¹ and a kon of 80000 M⁻¹ s⁻¹.

B4: uTCE from AC3092 (bispecific antibody)
chain: LTGPATSGSETPGTQVQLVESGGGVVQPGRSLRLSCAASGRTFGIYVMGWVRQAPGKEREFVAAISWSGSNRLVSDSVKGRFTISRDNSKNTLYLQMNSLRAEDTAVYYCAASNRLYGRTWYDFNESDYWGQGTQVTVSSGGGGSGGGSELVVTQEPSLTVSPGGTVTLTCRSSNGAVTSSNYANWVQQKPGQAPRGLIGGTNKRAPGTPARFSGSLLGGKAALTLSGVQPEDEAVYYCALWYPNLWVFGGGTKLTVLGATPPETGAETESPGETTGGSAESEPPGEGEVQLLESGGGIVQPGGSLKLSCAASGFTFNTYAMNWVRQAPGKGLEWVARIRSKYNNYATYYADSVKDRFTISRDDSKNTVYLQMNNLKTEDTAVYYCVRHENFGNSYVSWFAHWGQGTLVTVSSGTAEAASASGEAGRSANHTPAG
notes: unmasked TCE released from this paTCE; also called AMX-500-P1; PSMA.5-CD3.23 uTCE
With B4, the dissociation constant Kd in experiment [4] came to 64.6 nM; in experiment [5] it was 71.9 nM; in experiment [1], 3.9 nM; in experiment [6], 4.5 nM; in experiment [7] it was 41.1 nM; in experiment [2] it was 3.9 nM. In [21], this molecule yielded a dissociation constant (Kd) of 3.9 nM. For the same molecule, the figures for the concentration for a half-maximal effect (EC50) in experiment [20] and in experiment [12] were 28.8 nM and 9.06 nM, respectively. Also, the off-rate (koff) in experiment [2] amounted to 0.000273 s⁻¹; in experiment [21], 0.00027 s⁻¹. Also, the kon in [2] stood at 72500 M⁻¹ s⁻¹; in experiment [21], 72000 M⁻¹ s⁻¹.

B5: uTCE from AC3928 (bispecific antibody)
chain: LTGPGTSESATPESQVQLVESGGGVVQPGRSLRLSCAASGRTFGIYVWGWFRQAPGKEREFVGAMSWSGSNRKVSDSVKGRFTISRDNSKNTLYLQMNSLRAEDTAVYYCAASNKEYGRTWYDFNESDYWGQGTQVTVSSGGGGSGGGSELVVTQEPSLTVSPGGTVTLTCRSSNGAVTSSNYANWVQQKPGQAPRGLIGGTNKRAPGTPARFSGSLLGGKAALTLSGVQPEDEAVYYCALWYPNLWVFGGGTKLTVLSESATPESGPGTSPGATPESGPGTSESATPEVQLLESGGGIVQPGGSLKLSCAASGFTFNTYAMNWVRQAPGKGLEWVARIRSKYNNYATYYADSVKDRFTISRDDSKNTVYLQMNNLKTEDTAVYYCVRHENFGNSYVSWFAHWGQGTLVTVSSGTATPESGPGEAGRSASHTPAG
notes: unmasked TCE released from this paTCE; also called PSMA.350-CD3.23 uTCE; AMX500-P6
With B5, the Kd came out at 44.9 nM in [4]; 43 nM in [5]; 13.2 nM in experiment [6]; 198 nM in experiment [7]; 26.6 nM in experiment [10]; 27.3 nM in experiment [11]. In addition, the Kd in experiment [17] amounted to 19 nM; in experiment [18], 354 nM.

B6: uTCE from AC3934 (bispecific antibody)
chain: LTGPGTSESATPESQVQLVESGGGVVQPGRSLRLSCAASGRTFGIYVWGWVRQAPGKEREFVGAISWSGSNRKVSDSVKGRFTISRDNSKNTLYLQMNSLRAEDTAVYYCAASNKLYGRTWYDFNESDYWGQGTQVTVSSGGGGSGGGSELVVTQEPSLTVSPGGTVTLTCRSSNGAVTSSNYANWVQQKPGQAPRGLIGGTNKRAPGTPARFSGSLLGGKAALTLSGVQPEDEAVYYCALWYPNLWVFGGGTKLTVLSESATPESGPGTSPGATPESGPGTSESATPEVQLVESGGGIVQPGGSLRLSCAASGFTFSTYAMNWVRQAPGKGLEWVGRIRTKRNNYATYYADSVKGRFTISRDDSKNTVYLQMNSLKTEDTAVYYCVRHENFGNSYVSWFAHWGQGTLVTVSSGTATPESGPGEAGRSASHTPAG
notes: unmasked TCE released from this paTCE; also called PSMA.262-CD3.228 uTCE
Turning to B6, the Kd was found to be 33.7 nM in [4]; 26.6 nM in experiment [5]; 1.6 nM in experiment [6]; 13.1 nM in experiment [7]; 10.4 nM in experiment [10]; 9.83 nM in experiment [11]. The Kd in experiment [17] came out at 0.5 nM; in experiment [18] it was 13 nM.
